Measured values published in the supplement of paper PMC7125110.
± gives the standard error. This sample holds only a part of the variants without activity.

B1: glmS ribozyme (parent)
chain: AUAAAAGCGCCAGAACUACAGAAAUGUAGUUGACGAGGAGGAGGUUUAUCGAAUUUUCGGCGGAUGCCUCCAAA

Legend:
Details in all cases: with glucosamine-6-phosphate
glucosamine-6-phosphate [1] = variants of: B1; assay: self-cleavage kobs at 640 uM GlcN6P; higher = faster cleavage; RNA array
How it was run: (§1)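 Glucosamine-6-phosphate in HEPES/KCl/Mg(OAc)2 buffer, at 40 μM to 10 mM, was flowed over barcoded ribozyme variants transcribed in situ by E. coli RNA polymerase on sequenced MiSeq chips. Tracking was through a hybridised Cy3 probe at 37 °C. kobs, kcat and KM came from exponential decay fits and weighted Michaelis–Menten fits of normalised per-tile medians.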

glucosamine-6-phosphate [2] = variants of: B1; assay: self-cleavage kobs at 2500 uM GlcN6P; higher = faster cleavage; RNA array
How it was run: as §1

glucosamine-6-phosphate [3] = variants of: B1; assay: self-cleavage kobs at 10000 uM GlcN6P; higher = faster cleavage; RNA array
How it was run: as §1

Row | Variant | self-cleavage kobs at 640 uM GlcN6P (glucosamine-6-phosphate [1]) [s⁻¹] | self-cleavage kobs at 2500 uM GlcN6P (glucosamine-6-phosphate [2]) [s⁻¹] | self-cleavage kobs at 10000 uM GlcN6P (glucosamine-6-phosphate [3]) [s⁻¹]
1 | C34U U46G C68G | 0.000568 ± 0.00025 | < 1e-05 | 
2 | G38A G43U G51C | < 1e-05 | < 1e-05 | 
3 | U30G U46C U47G | 8.33e-05 ± 2.2e-05 |  | 
4 | G32C G35U A52G | < 1e-05 | < 1e-05 | 
5 | A36U U55C G60U | < 1e-05 |  | 
6 | A33C U45C U47A A48G | < 1e-05 |  | 
7 | C34G U49A G66A | < 1e-05 |  | 
8 | U31G G35C G51U | < 1e-05 |  | 
9 | G32U A42C C58U | < 1e-05 | < 1e-05 | 
10 | G38U C50G A64G | 6.44e-05 ± 2.9e-05 | 3.85e-05 ± 1.7e-05 | 
11 | G32U G38C C68U | < 1e-05 |  | 
12 | G38C A48C | < 1e-05 | < 1e-05 | < 1e-05
13 | G38A G40C A42C A72U | < 1e-05 |  | 
14 | G37C U45G G63U | < 1e-05 | < 1e-05 | 
15 | G32U A33G | < 1e-05 |  | 
16 | G35U G59U G60C G62U | < 1e-05 |  | 
17 | G35A C50U G62C C68G | < 1e-05 |  | 
18 | U30A A48C C58U G59C | < 1e-05 |  | 
19 | A33G U57A | < 1e-05 | < 1e-05 | 
20 | U30C G32U C34G G51U | < 1e-05 | < 1e-05 | 
21 | G37A G40U G43C | < 1e-05 |  | 
22 | U31C G66A C68A U69G | 7.97e-05 ± 4e-05 | 4.91e-05 ± 1.6e-05 | 
23 | U30G U47A G60U | < 1e-05 |  | 

Row | Variant | self-cleavage kobs at 640 uM GlcN6P (glucosamine-6-phosphate [1]) [s⁻¹] | self-cleavage kobs at 2500 uM GlcN6P (glucosamine-6-phosphate [2]) [s⁻¹] | self-cleavage kobs at 10000 uM GlcN6P (glucosamine-6-phosphate [3]) [s⁻¹]
24 | C34U G43U A53G U55A A64U | < 1e-05 | < 1e-05 | 
25 | C34U G44C G63U A64C | < 1e-05 |  | 
26 | A36U U46C C50U C58U G59C C67A | < 1e-05 |  | 
27 | A36G G43A G59U | < 1e-05 | < 1e-05 | 
28 | C34G A39C U46A | < 1e-05 |  | 
29 | U30G G40A U56G | 6.26e-05 ± 2e-05 | 0.00032 ± 7.3e-05 | 
30 | U31C C50G G59A C71G | 7.63e-05 ± 1.9e-05 |  | 
31 | U31G G41A U46G | 7.29e-05 ± 2.3e-05 | 0.00021 ± 5.3e-05 | 
32 | U30A U31C G32A | 6.3e-05 ± 1.6e-05 | 0.000298 ± 5.8e-05 | 
33 | A33U G35C G63U | < 1e-05 | < 1e-05 | 
34 | U31C G38U A39C G43U G62A U69G | < 1e-05 |  | 
35 | G35U G40U G63U C71G | < 1e-05 |  | 
36 | G37U G59U G63A | < 1e-05 | < 1e-05 | 
37 | G35A U46C G66A | < 1e-05 |  | 
38 | U30A A33G A36C | < 1e-05 |  | 
39 | U31A U47C G51A G66A | < 1e-05 | < 1e-05 | 
40 | A33G G38U U49C C71U | < 1e-05 | < 1e-05 | 
41 | G35A G40U G62U | < 1e-05 | < 1e-05 | 
42 | G37C U57A A64C C71A | < 1e-05 | < 1e-05 | 
43 | G38A C61U C68U | < 1e-05 |  | 
44 | G35C A48G A53U U69C | < 1e-05 |  | 
45 | C34A A39C G59C C61G | < 1e-05 | < 1e-05 | 
46 | A36G G38U C50A G62A | < 1e-05 |  | 

Row | Variant | self-cleavage kobs at 640 uM GlcN6P (glucosamine-6-phosphate [1]) [s⁻¹] | self-cleavage kobs at 2500 uM GlcN6P (glucosamine-6-phosphate [2]) [s⁻¹] | self-cleavage kobs at 10000 uM GlcN6P (glucosamine-6-phosphate [3]) [s⁻¹]
47 | C34G G51A C67U | < 1e-05 |  | 
48 | G38A A42G G62U | < 1e-05 |  | 
49 | G38U C67U C70U | 0.000296 ± 0.00014 |  | 
50 | U30G A42U C50A G60U | < 1e-05 |  | 
51 | U30A G51U A53C G59A G60C C70G | < 1e-05 |  | 
52 | G32A G43A U57G | < 1e-05 |  | 
53 | G37A U55C U56G | 0.000171 ± 5.1e-05 |  | 
54 | G37U G38A G41U U49A A52U G59U C67A | < 1e-05 |  | 
55 | U31A U56G C58G | 9.04e-05 ± 1.6e-05 | 0.000252 ± 5e-05 | 
56 | U31G A36C U49G | 8.9e-05 ± 1.7e-05 | 0.000257 ± 4.5e-05 | 0.000385 ± 6.8e-05
57 | U30A U31C A39U | 0.00038 ± 0.00011 | 0.000577 ± 0.00018 | 
58 | U31A A33U G44U U69C | < 1e-05 |  | 
59 | G35U G51A G63A C67A | < 1e-05 | < 1e-05 | 
60 | U30G U55G C68U | 0.000548 ± 0.00014 | 7.82e-05 ± 2.1e-05 | 
61 | A36C U54G G63A | < 1e-05 |  | 
62 | C34A G44C C58U | < 1e-05 | < 1e-05 | 
63 | G38U G41A U47C | < 1e-05 | < 1e-05 | 
64 | G32A U65A C71U | 5.38e-05 ± 1.4e-05 | 9.54e-05 ± 2.4e-05 | 
65 | C34U G44A A48U U56A G60A | < 1e-05 |  | 
66 | A33U G44U A48C | < 1e-05 |  | 
67 | A36U G38A A52U C67G | 4.67e-05 ± 1.8e-05 | 4.17e-05 ± 2.1e-05 | 
68 | C34A G51A A52G | < 1e-05 | < 1e-05 | 
69 | G32U U55G C71U | 0.00014 ± 3.5e-05 |  | 0.000518 ± 0.00011
